# Data reported in article PMC8811538, “Pilot scale production, extraction and purification of a thermostable phycocyanin from Synechocystis sp. PCC 6803” (Bioresource Technology, 2022).
# Several values for one entry are separate records, joined by “and”; a condition that tells them apart may be missing. Equal entries are not always repeated.
# T1: phycocyanin β-subunit (CpcB) of Te-PC (Thermosynechococcus elongatus BP-1, UniProt P50033 1-172, phycobilin chromophore (chromophorylated; sites not given))
# T1 construct: phycocyanin beta-subunit CpcB of Thermosynechococcus elongatus BP-1, expressed from the cpcBACD (TeBACD) operon; source: Synechocystis sp
# T1 sequence (looked up): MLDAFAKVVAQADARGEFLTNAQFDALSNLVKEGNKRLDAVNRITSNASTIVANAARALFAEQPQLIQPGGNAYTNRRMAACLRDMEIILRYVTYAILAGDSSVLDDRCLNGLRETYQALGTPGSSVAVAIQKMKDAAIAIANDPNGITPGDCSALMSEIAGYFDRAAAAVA
# Tests used:
# [1] = target: the molecule itself; assay: SEC; purified, freeze-dried Te-PC resuspended in 15 mM citric acid-trisodium citrate pH 6.0; 250 µL (425 µg Te-PC) on Superdex-200 10/300 GL in 100 mM trisodium citrate, pH 6.0, 8 °C, 0.5 mL/min; absorption at 280 and 615 nm; sizes from molecular weight standards (apparent); peaks about 5% hexamer, 80% trimer, 15% (ɑβ) monomer
# [2] = target: T1, phycocyanin β-subunit (CpcB) of Te-PC; assay: as above; conditions: both partners purified
binding result [2],Binder,stoichiometry N [1]
–,"thermostable phycocyanin from Thermosynechococcus elongatus BP-1, (ɑβ) monomer (complex, phycobilin chromophore (chromophorylated; sites not given) | phycobilin chromophore (chromophorylated; sites not given), phycocyanin alpha-subunit CpcA of Thermosynechococcus elongatus BP-1, expressed from the cpcBACD (TeBACD) operon; phycocyanin beta-subunit CpcB of Thermosynechococcus elongatus BP-1, expressed from the cpcBACD (TeBACD) operon; The construct is described in the supplementary materials and in Puzorjov et al., 2021; also called Te-PC; PC; source: Synechocystis sp) chain 1: not shown chain 2: MLDAFAKVVAQADARGEFLTNAQFDALSNLVKEGNKRLDAVNRITSNASTIVANAARALFAEQPQLIQPGGNAYTNRRMAACLRDMEIILRYVTYAILAGDSSVLDDRCLNGLRETYQALGTPGSSVAVAIQKMKDAAIAIANDPNGITPGDCSALMSEIAGYFDRAAAAVA",6 and 3
binds,"phycocyanin ⍺-subunit (CpcA) of Te-PC (natural protein, phycobilin chromophore (chromophorylated; sites not given), phycocyanin alpha-subunit CpcA of Thermosynechococcus elongatus BP-1, expressed from the cpcBACD (TeBACD) operon; source: Synechocystis sp) not shown",–
